# In IntAct's records for PubMed 18068675:
# B1: Neurovirulence factor ICP34.5 (Human herpesvirus 1 (strain 17) (HHV-1)), P36313 (parent)
# chain: MARRRRHRGPRRPRPPGPTGAVPTAQSQVTSTPNSEPAVRSAPAAAPPPPPAGGPPPSCSLLLRQWLHVPESASDDDDDDDWPDSPPPEPAPEARPTAAAPRPRPPPPGVGPGGGADPSHPPSRPFRLPPRLALRLRVTAEHLARLRLRRAGGEGAPEPPATPATPATPATPATPARVRFSPHVRVRHLVVWASAARLARRGSWARERADRARFRRRVAEAEAVIGPCLGPEARARALARGAGPANSV
# Variants of: B1
# Conditions: with pp1a_human PPP1CA
row,Variant,effect of a mutation on the interaction
1,R236D,decreasing interaction

# Variants of: B1
# Conditions: with pp1a_human PPP1CA
# Remark: another data set of the same source
row,Variant,effect of a mutation on the interaction
1,R234E,decreasing interaction

# Variants of: B1
# Conditions: with pp1a_human PPP1CA
# Remark: another data set of the same source
row,Variant,effect of a mutation on the interaction
1,V178E;F180L,decreasing interaction

# Variants of: B1
# Conditions: with pp1a_human PPP1CA
# Remark: another data set of the same source
row,Variant,effect of a mutation on the interaction
1,V178E;F180L,disrupting interaction
